Experimental data reported in patent publication US20220251219A1 (published 2022).
Positions count from the first letter of the chain named. Each block holds one binder with its values, some of them ahead of it.

Experiments:
human Sortilin = human Sortilin (human, UniProt Q99523 78-830); assay: cell-based or functional assay
mouse Sortilin = mouse Sortilin (mouse, UniProt Q6PHU5 74-825); assay: cell-based or functional assay
[1] = molecular target: T1, recombinant human Sortilin (human, UniProt Q99523 78-830); assay: flow cytometry, 10 ug/ml antibody on 293 cells expressing recombinant human Sortilin, PE anti-human secondary
T1 construct: also called hSort; SORT1
Method: (§1) Cells were harvested, plated at 10⁵/ml in a 96 well plate, washed, and incubated in 100 μl PBS containing 10 μg/ml Mab and 2% FBS for 1 hour in ice. Cells were then washed twice and incubated in 100 μl PBS+2% FBS containing 5 μg/ml PE-conjugated anti-human secondary antibody for 30 minutes in ice. Cells were washed twice in cold PBS and data was acquired on a BD FACS Canto. Data analysis and calculation of MFI values was performed with FlowJo (TreeStar) software version 10.0.7.

[2] = molecular target: T2, recombinant mouse Sortilin (mouse, UniProt Q6PHU5 74-825); assay: flow cytometry, 10 ug/ml antibody on 293 cells expressing recombinant mouse Sortilin, PE anti-human secondary
T2 construct: also called mSort
Method: as §1

[3] = molecular target: T3, human Sortilin expressed on HEK293T cells (human, UniProt Q99523 78-830); assay: flow cytometry, antibody titration on HEK293T cells stably expressing human Sortilin, 4 C, apparent KD by non-linear fit
T3 construct: also called hSort; HEK293T + hSort
Method: (§2) Antibodies were diluted in FACS buffer (PBS+2% FBS+0.01% NaAzide). After incubation on ice for 1 h, cells were washed three times in FACS buffer and incubated with anti-human PE conjugated secondary antibody (BD Biosciences, 1:100 dilution) for 30 min on ice. Then cells were washed twice in 200 μl FACS buffer, and subsequently analyzed on a FACS Canto or iQE FACS screening instrument (Intellicyt Corp).

[4] = molecular target: T4, mouse Sortilin expressed on HEK293T cells (mouse, UniProt Q6PHU5 74-825); assay: flow cytometry, antibody titration on HEK293T cells transiently expressing mouse Sortilin, 4 C, apparent KD by non-linear fit
T4 construct: also called msSort; mSort
Method: as §2

- Percent reduction of Sortilin levels in U251 cells (human Sortilin): 18.2%
- Percent reduction of Sortilin levels in N2A cells (mouse Sortilin): 51.3%
B1: anti-Sortilin antibody S-81 (antibody, V domains shown)
VH: QLQLQESGPGLVKPSETLSLTCTVSGGSISSSSYYWGWIRQPPGKGLEWIGSIYYSGSTYYNPSLKSRVTISVDTSKNQFSLKLSSVTAADTAVYYCARERWDLGHGMDVWGQGTTVTVSS
VL: not shown

- MFI binding [1]: 8940 MFI
- MFI binding [2]: 16600 MFI
B2: anti-Sortilin antibody S-81 (antibody, V domains shown)
VH: B1 VH
VL: not shown
notes: Tested as full IgG made in yeast

- MFI binding [1]: 9240 MFI
- MFI binding [2]: 15400 MFI
B3: anti-Sortilin antibody S-84 (antibody, V domains shown)
VH: QLQLQESGPGLVKPSETLSLTCTVSGGSISSSSYYWGWIRQPPGKGLEWIGSISYSGSTYYNPSLKSRVTISVDTSKNQFSLKLSSVTAADTAVYYCARGGTTWLVADVWGQGTMVTVSS
VL: not shown
notes: as for B2

- Percent reduction of Sortilin levels in U251 cells (human Sortilin): 70.3%
- Percent reduction of Sortilin levels in N2A cells (mouse Sortilin): 62.7%
B4: anti-Sortilin antibody S-61 (antibody, V domains shown)
VH: QVQLQESGPGLVKPSETLSLTCAVSGYSISSGYYWGWIRQPPGKGLEWIGSIYHSGSTYYNPSLKSRVTISVDTSKNQFSLKLSSVTAADTAVYYCARGSPRFYYGSGSYLDLFDIWGQGTMVTVSS
VL: EIVMTQSPATLSVSPGERATLSCRASQSVSSNLAWYQQKPGQAPRLLIYGASTRATGIPARFSGSGSGTEFTLTISSLQSEDFAVYYCQEYLNYPITFGGGTKVEIK

- Kd [3]: 3.84 nM
- Kd [4]: 6.62 nM
B5: anti-Sortilin antibody S-15-6-12 (antibody, V domains shown)
VH: QVQLVQSGAEVKKPGASVKVSCKASGYTFTSRYMSWVRQAPGQGLEWMGIINPVGGSTSYAQKFQGRVTMTRDTSTSTVYMELSSLRSEDTAVYYCARDPSGIALAGPGSRYYRGMDVWGQGTTVTVSS
VL: B4 VL with E90Q, Y91A, L92R, N93L, Y94G, I96W

- Percent reduction of Sortilin levels in U251 cells (human Sortilin): 42.5%
- Percent reduction of Sortilin levels in N2A cells (mouse Sortilin): 45.1%
B6: anti-Sortilin antibody S-6 (antibody, V domains shown)
VH: not shown
VL: B4 VL with E90Q, Y91V, L92A, I96R

- MFI binding [1]: 9300 MFI
B7: anti-Sortilin antibody S-83 (antibody, V domains shown)
VH: QLQLQESGPGLVKPSETLSLTCTVSGGSISSSSYYWGWIRQPPGKGLEWIGSIYYSGSTYYNPSLKSRVTISVDTSKNQFSLKLSSVTAADTAVYYCARGSPTWLRDYYMDVWGKGTTVTVSS
VL: B4 VL with M4L, E90Q, L92N, N93A, Y94F, I96P
notes: as for B2

- MFI binding [1]: 8580 MFI
- MFI binding [2]: 1890 MFI
B8: anti-Sortilin antibody S-69 (antibody, V domains shown)
VH: QVQLQESGPGLVKPSQTLSLTCTVSGGSISSGGYYWSWIRQHPGKGLEWIGYIYYSGSTYYNPSLKSRVTISVDTSKNQFSLKLSSVTAADTAVYYCARDRGGTHFGADHYYYGMDVWGQGTMVTVSS
VL: B4 VL with N32S, E90Q, Y91A, L92A, N93D, Y94W
notes: as for B2

- Kd [3]: 2.88 nM
- Kd [4]: 4.07 nM
B9: anti-Sortilin antibody S-15-10-13 (antibody, V domains shown)
VH: B5 VH with S31K, R32Y, V54I, Q62R, L105A, G107Y, G109A, Y113N, R114Y
VL: B4 VL with E90Q, Y91A, L92R, N93L, Y94G, I96W

- MFI binding [1]: 7120 MFI
- MFI binding [2]: 7930 MFI
B10: anti-Sortilin antibody S-78 (antibody, V domains shown)
VH: QLQLQESGPGLVKPSETLSLTCTVSGGSISSSDYYWGWIRQPPGKGLEWIGSIYYSGSTYYNPSLKSRVTISVDTSKNQFSLKLSSVTAADTAVYYCARSLAMSGAYFDLWGRGTLVTVSS
VL: not shown
notes: as for B2

- Percent reduction of Sortilin levels in U251 cells (human Sortilin): 93.4%
- Percent reduction of Sortilin levels in N2A cells (mouse Sortilin): 86.5%
B11: anti-Sortilin antibody S-19 (antibody, V domains shown)
VH: QVQLVQSGAEVKKPGSSVKVSCKASGGTFSSYAISWVRQAPGQGLEWMGGIIPIFGTASYAQKFQGRVTITADESTSTAYMELSSLRSEDTAVYYCARESRIPGSGYYYYYGMDVWGQGTTVTVSS
VL: DIQMTQSPSSLSASVGDRVTITCRASQSISSYLNWYQQKPGKAPKLLIYSASSLQSGVPSRFSGSGSGTDFTLTISSLQPEDFATYYCQQTDGKPPTFGGGTKVEIK

- MFI binding [1]: 9680 MFI
- MFI binding [2]: 4180 MFI
B12: anti-Sortilin antibody S-76 (antibody, V domains shown)
VH: QVQLQESGPGLVKPSQTLSLTCTVSGGSISSGGYYWSWIRQHPGKGLEWIGSIYYSGSTYYNPSLKSRVTISVDTSKNQFSLKLSSVTAADTAVYYCARGVGIQQQLVLGFDPWGQGTLVTVSS
VL: B11 VL with Y32F, Y49S, S50A, T91S, D92Y, G93R, K94E, P96I
notes: as for B2

- Percent reduction of Sortilin levels in U251 cells (human Sortilin): 17.1%
- Percent reduction of Sortilin levels in N2A cells (mouse Sortilin): 47.3%
B13: anti-Sortilin antibody S-26 (antibody, V domains shown)
VH: EVQLVESGGGLVKPGGSLRLSCAASGFTFSSYSMNWVRQAPGKGLEWVSSISSSSSYIYYADSVKGRFTISRDNAKNSLYLQMNSLRAEDTAVYYCARDRLGRGYKWNWFDPWGQGTLVTVSS
VL: DIQMTQSPSSVSASVGDRVTITCRASQGIDSWLAWYQQKPGKAPKLLIYAASSLQSGVPSRFSGSGSGTDFTLTISSLQPEDFATYYCQQGNSLPPITFGGGTKVEIK

- MFI binding [1]: 8070 MFI
- MFI binding [2]: 7670 MFI
B14: anti-Sortilin antibody S-73 (antibody, V domains shown)
VH: QVQLQESGPGLVKPSQTLSLTCTVSGGSISSGTYYWSWIRQHPGKGLEWIGYIYYSGSTYYNPSLKSRVTISVDTSKNQFSLKLSSVTAADTAVYYCARGVGRYRVADYWGQGTLVTVSS
VL: EIVLTQSPATLSLSPGERATLSCRASQSVSSYLAWYQQKPGQAPRLLIYDASNRATGIPARFSGSGSGTDFTLTISSLEPEDFAVYYCQQASVYPPITFGGGTKVEIK
notes: as for B2

- MFI binding [1]: 9210 MFI
- MFI binding [2]: 7300 MFI
B15: anti-Sortilin antibody S-74 (antibody, V domains shown)
VH: B14 VH
VL: B14 VL with L4M, A51S, A91E, S92T, V93N, Y94M
notes: as for B2
